# In patent US20230129258A1 (Bicycle, published 2023):
# Starred links: 1 amine or outer side, 2 acyl side, 3 side chain; linkers in the order of their positions; H or OH if unused. Positions of bridges follow the written chain, without caps; N, C: chain ends. Non-standard residues stand in square brackets, D forms with d. Chains are numbered I, II in the order given. No end group written: not given here. *: point of attachment. TATA = O=C(CC[*:1])N1CN(C(=O)CC[*:2])CN(C(=O)CC[*:3])C1; γGlu = O=C(O)[C@H](CCC(=O)[*:2])N[*:1]; 1Nal = N[C@@H](Cc1cccc2ccccc12)C(=O)O; Palmitoyl = CCCCCCCCCCCCCCCC(=O)*; Hyp = O=C(O)[C@@H]1C[C@@H](O)CN1; hArg = N=C(N)NCCCC[C@H](N)C(=O)O; tBuAla = CC(C)(C)C[C@H](N)C(=O)O; Cysteamide = C(CS[*:3])N[*:1]; dK(PYA) = not defined here; NMeA = CN[C@@H](C)C(=O)O; Nle = CCCC[C@H](N)C(=O)O; Pent4ynoyl = C#CCCC(=O)*; dNMeA = CN[C@H](C)C(=O)O; Mpa = O=C(O)CCS
# B1: BCY12760 (peptide)
# peptide 1: CP[1Nal]DCM[hArg]DWSTP[Hyp]WC
# peptide 2: Ac-C[tBuAla]PE[dK](Pent4ynoyl)PYCFAD[NMeA]Y[Nle]C
# modifications: linker I:1-I:5-I:15, II:1-II:8-II:15 via TATA; not fully specified (some residues, bridges); also: chain 1 N-terminus and chain 2 dLys(PYA)4 joined by N-(acid-PEG3)-N-bis(PEG3-azide) linker
# B2: BCY13583 (peptide)
# peptide 1: CP[1Nal][dD]CM[hArg]DWSTP[Hyp]WC
# peptide 2: Ac-C[tBuAla]PE[dK(PYA)]PYCFADPY[Nle]CA
# peptide 3: Ac-C[tBuAla]PE[dK(PYA)]PYCFADPY[Nle]CK
# modifications: linker I:1-I:5-I:15 via TATA; linker II:1-II:8-II:15, III:1-III:8-III:15 via TATA (inferred); reading uncertain; also: Alexa Fluor 488 label, site not given here, linker at chain B 5 at chain C 5 to a chain's N-terminus via N-(acid-PEG3)-N-bis(PEG3-azide)
# B3: BCY12487 (peptide)
# peptide 1: CP[1Nal]DCM[hArg]DWSTP[Hyp]WC
# peptide 2: Ac-C[tBuAla]PE[dK](Pent4ynoyl)PYCFAEPY[Nle]C
# modifications: linker I:1-I:5-I:15, II:1-II:8-II:15 via TATA; not fully specified (some residues, bridges); also: chain 1 N-terminus and chain 2 dLys(PYA)4 joined by N-(acid-PEG3)-N-bis(PEG3-azide) linker
# B4: BCY10919 (peptide)
# peptide 1: CPXDCMXDWSTPXWC
# peptide 2: CXPEAPYCFADPYXCX
# modifications: not fully specified; BCY11014: Ac-(SEQ ID NO: 6)-Dap(PYA); TATA; linker at C-term Dap(PYA); BCY11015: [PYA]-(SEQ ID NO: 1); TATA; linker at N-term PYA
# B5: BCY12761 (peptide)
# peptide 1: CP[1Nal]DCM[hArg]DWSTP[Hyp]WC
# peptide 2: Ac-C[tBuAla]PE[dK](Pent4ynoyl)PYCFAD[dNMeA]Y[Nle]C
# modifications: linker I:1-I:5-I:15, II:1-II:8-II:15 via TATA; not fully specified (some residues, bridges); also: chain 1 N-terminus and chain 2 dLys(PYA)4 joined by N-(acid-PEG3)-N-bis(PEG3-azide) linker
# B6: BCY10918 (peptide)
# peptide 1: CPXDCMXDWSTPXWC
# peptide 2: CXPEXPYCFADPYXCA
# modifications: not fully specified; BCY8928: Ac-(SEQ ID NO: 11)-A; TATA; linker at dLys(PYA)4; BCY11015: [PYA]-(SEQ ID NO: 1); TATA; linker at N-term PYA
# B7: BCY12589 (peptide)
# peptide 1: {Palmitoyl-γGlu-γGlu}-CP[1Nal]KCM[hArg]DWSTP[Hyp]WC
# peptide 2: Ac-C[tBuAla]PE[dK](Pent4ynoyl)PYCFADPY[Nle]CA
# modifications: linker I:1-I:5-I:15, II:1-II:8-II:15 via TATA; not fully specified; also: chain 2 present twice on linker, Nectin-4:CD137 1:2, linker at B5 via N-(acid-PEG3)-N-bis(PEG3-azide), other end not in the chain
# B8: BCY11027 (peptide)
# peptide 1: CPXDCMXDWSTPXWC
# peptide 2: CXPEXPYCFADPYXCA
# modifications: not fully specified; BCY8928: Ac-(SEQ ID NO: 11)-A; TATA; linker at dLys(PYA)4; BCY11015: [PYA]-(SEQ ID NO: 1); TATA; linker at N-term PYA
# B9: BCY12490 (peptide)
# peptide 1: CPXKCMXDWSTPXWC
# peptide 2: CXPEXPYCFADPYXCA
# modifications: BCY8928: Ac-(SEQ ID NO: 11)-A; TATA; linker at dLys(PYA)4; BCY12024: Ac-(SEQ ID NO: 14); TATA; linker at dLys3
# B10: BCY11022 (peptide)
# peptide 1: CPXDCMXDWSTPXWC
# peptide 2: CXPEXPYCFADPYXCA
# modifications: not fully specified; BCY8928: Ac-(SEQ ID NO: 11)-A; TATA; linker at dLys(PYA)4; BCY11016: [PYA]-[B-Ala]-(SEQ ID NO: 1); TATA; linker at N-term PYA
# B11: BCY12587 (peptide)
# peptide 1: CP[1Nal]DCM[hArg]DWSTP[Hyp]WC
# peptide 2: [Mpa][tBuAla]PE[dK](Pent4ynoyl)PYCFADPY[Nle]C
# modifications: linker I:1-I:5-I:15, II:1-II:8-II:15 via TATA; not fully specified (some residues); also: chain 2 present twice on linker, Nectin-4:CD137 1:2, linker at chain B 5 to a chain's N-terminus via N-(acid-PEG3)-N-bis(PEG3-azide)
# B12: BCY11021 (peptide)
# peptide 1: CPXDCMXDWSTPXWC
# peptide 2: ACIEEXQYCFADPYXCA
# modifications: not fully specified; BCY7744: Ac-A-(SEQ ID NO: 12)-A; TATA; linker at dLys(PYA)4; BCY11016: [PYA]-[B-Ala]-(SEQ ID NO: 1); TATA; linker at N-term PYA
# B13: BCY12588 (peptide)
# peptide 1: CP[1Nal]DCM[hArg]DWSTP[Hyp]WC
# peptide 2: [Mpa][tBuAla]PE[dK](Pent4ynoyl)PYCFADPY[Nle][Cysteamide]
# modifications: linker I:1-I:5-I:15, II:1-II:8-II:15 via TATA; not fully specified (some residues); also: chain 2 present twice on linker, Nectin-4:CD137 1:2, linker at chain B 5 to a chain's N-terminus via N-(acid-PEG3)-N-bis(PEG3-azide)
# B14: BCY12590 (peptide)
# peptide 1: CP[1Nal]ECM[hArg]EWSTP[Hyp]WC
# peptide 2: Ac-C[tBuAla]PE[dK](Pent4ynoyl)PYCFADPY[Nle]CA
# modifications: linker I:1-I:5-I:15, II:1-II:8-II:15 via TATA; not fully specified (some residues, bridges); also: chains joined via N-(acid-PEG3)-N-bis(PEG3-azide) linker, triazole at dLys(PYA)
# B15: BCY11780 (peptide)
# peptide 1: SDKCSAGWLTMCQXLHLCPSH
# peptide 2: CXPEXPYCFADPYXCA
# modifications: BCY8928: Ac-(SEQ ID NO: 11)-A; TATA; linker at dLys4; BCY10861: Ac-SDK-(SEQ ID NO: 53)-PSH; TATA; linker at Lys(PYA)9
# Molecular target: T1, CD137 on Jurkat reporter cells (Promega kit CS196005) (UniProt Q07011 24-255, limits assumed)
# Test: cell-based or functional assay
# T1 sequence (Q07011 24-255 limits assumed): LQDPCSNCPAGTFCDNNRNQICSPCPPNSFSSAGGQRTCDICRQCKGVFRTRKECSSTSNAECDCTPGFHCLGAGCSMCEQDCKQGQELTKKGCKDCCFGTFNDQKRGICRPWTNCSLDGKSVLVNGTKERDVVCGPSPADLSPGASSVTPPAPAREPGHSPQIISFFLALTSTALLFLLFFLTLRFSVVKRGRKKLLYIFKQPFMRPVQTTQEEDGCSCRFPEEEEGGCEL
Binder,"EC50 (nM), HT1376 co-culture [nM]","Emax (fold induction over background), HT1376 [fold over background]"
B1,1.8,76
B2,1.7,63
B3,13,12
B4,0.19,62
B5,0.37,76
B6,0.16,
B7,0.44,79
B8,0.18,
B9,0.23,70
B10,0.2,66

# Molecular target: T1, CD137 on Jurkat reporter cells (Promega …)
# Test: cell-based or functional assay
# Remark: another data set of the same source
Binder,"Fold improvement in EC50 over BCY10000 on same plate, NCI-H292 [fold]","Fold improvement in Emax over BCY10000 on same plate, NCI-H292 [fold]"
B11,4.2,2.9
B12,9.63,4.42
B13,0.72,3.2
B14,5.5,2.73

# Molecular target: T1, CD137 on Jurkat reporter cells (Promega …)
# Test: cell-based or functional assay
# Remark: another data set of the same source
Binder,"EC50 (nM), RKO co-culture [nM]","Fold Induction over background, RKO co-culture [fold]"
B15,1.9,13

# Molecular target: T1, CD137 on Jurkat reporter cells (Promega …)
# Test: cell-based or functional assay
# Remark: another data set of the same source
Binder,"Arithmetic mean EC50 (nM), HT1376 co-culture [nM]","Arithmetic mean EC50 (nM), MDA-MB-468 co-culture [nM]"
B2,1.7,0.84
